# Measured values reported in patent US20030223991A1.
# Assays:
# [1] = target: human CD200Ra (SEQ ID NO:2) (human) (UniProt Q8TD46); test: cell-based or functional assay
# [2] = target: mouse CD200Ra (SEQ ID NO:6) (mouse) (UniProt Q9ES57); test: cell-based or functional assay
# Sequence of UniProt Q9ES57 (Q9ES57 26-326 limits assumed): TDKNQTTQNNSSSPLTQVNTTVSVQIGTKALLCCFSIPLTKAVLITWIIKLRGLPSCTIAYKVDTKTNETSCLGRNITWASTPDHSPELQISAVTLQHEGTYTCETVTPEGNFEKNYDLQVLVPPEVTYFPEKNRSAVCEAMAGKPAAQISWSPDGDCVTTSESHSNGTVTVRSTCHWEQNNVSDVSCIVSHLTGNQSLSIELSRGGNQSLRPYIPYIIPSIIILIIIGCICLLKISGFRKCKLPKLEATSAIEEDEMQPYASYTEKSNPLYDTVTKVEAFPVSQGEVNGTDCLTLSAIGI
# Sequence of UniProt Q8TD46 (Q8TD46 other isoform, or with tags, fused parts or gaps limits assumed): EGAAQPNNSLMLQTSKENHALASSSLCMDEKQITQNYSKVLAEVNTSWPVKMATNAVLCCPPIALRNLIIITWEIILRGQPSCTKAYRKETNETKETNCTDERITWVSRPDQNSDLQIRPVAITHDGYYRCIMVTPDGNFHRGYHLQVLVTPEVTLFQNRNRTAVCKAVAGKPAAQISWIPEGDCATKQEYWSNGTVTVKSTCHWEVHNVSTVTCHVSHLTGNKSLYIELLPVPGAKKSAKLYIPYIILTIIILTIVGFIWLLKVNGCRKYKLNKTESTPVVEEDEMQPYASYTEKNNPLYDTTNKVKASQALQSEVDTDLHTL
Substance,Bioassay IC50 (inhibition of β-hexosaminidase secretion by mouse mast cells expressing human CD200Ra) [1] [nM],Bioassay IC50 (inhibition of mast cell secretion) [2] [nM]
huCD200-Ig (from UniProt P41217 31-232) (Fc fusion),0.3,
muCD200-Ig (from UniProt O54901 31-232) (Fc fusion),,1.3
